Numbered stars: 1 amine (or outer) side, 2 acyl side, 3 side chain; on linkers, the order of the positions; unused ones are H or OH. Bridge positions count the residues as written; N and C are the ends. Square brackets hold non-standard residues; d marks the D form. Ends that are not written are not given here. * marks the point of attachment. HAY = 2-(4-hydroxyphenyl)acetic acid replacing N-terminal Tyr, O=C(Cc1ccc(O[*:3])cc1)[*:2]; Desaminotyrosyl = O=C(CCc1ccc(O)cc1)*; Aib = CC(C)(N)C(=O)O
T1: human GIP receptor (human, UniProt P48546 22-466)
T1 sequence (looked up): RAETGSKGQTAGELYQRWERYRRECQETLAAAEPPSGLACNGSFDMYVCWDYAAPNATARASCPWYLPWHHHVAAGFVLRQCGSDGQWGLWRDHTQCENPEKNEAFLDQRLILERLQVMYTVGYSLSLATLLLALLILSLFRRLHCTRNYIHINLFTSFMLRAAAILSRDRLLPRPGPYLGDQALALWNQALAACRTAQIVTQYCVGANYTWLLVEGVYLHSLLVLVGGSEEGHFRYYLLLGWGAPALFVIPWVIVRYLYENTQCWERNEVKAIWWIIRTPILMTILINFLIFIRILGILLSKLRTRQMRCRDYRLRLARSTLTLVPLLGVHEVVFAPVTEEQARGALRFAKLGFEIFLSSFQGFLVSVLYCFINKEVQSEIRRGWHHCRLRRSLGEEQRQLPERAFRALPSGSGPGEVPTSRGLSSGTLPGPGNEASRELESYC


Assays:
human GIP receptor = biological target: T1, human GIP receptor; test: cell-based or functional assay
human GLP-1 receptor = human GLP-1 receptor (human, UniProt P43220 24-463); test: cell-based or functional assay

Row | Binder | In vitro activity (%) compared to native-type peptide, vs human GIP (cAMP EC50, human GIP receptor-expressing CHO cells) (human GIP receptor) | In vitro activity (%) compared to native-type peptide, vs human GLP-1 (cAMP EC50, human GLP-1 receptor-expressing CHO cells) (human GLP-1 receptor)
1 | Y[Aib]EGTFTSDYSIYLDKQAA[Aib]AFVQWLIAGGPSSGAPPPSC [GLP-1/GIP dual agonist of SEQ ID NO: 19] | 13.9% | 32.8%
2 | Y[Aib]EGTFTSDYSEYMEKEAVREFISWLVRGGPSSGAPPPSK (bridge 12-16) [GLP-1/GIP dual agonist of SEQ ID NO: 13] |  | 116%
3 | Y[Aib]EGTFTSDYSKYLDEIAAKDFVQWLLDHHPSSGQPPPSC (bridge 16-20) [GLP-1/GIP dual agonist of SEQ ID NO: 3] | 28.7% | 6.8%
4 | Y[Aib]EGTFTSDYSKYLDEEAVKLFVQWLLDQHPSSGAPPPSC (bridge 16-20) [GLP-1/GIP dual agonist of SEQ ID NO: 25] | 59.4% | 3.2%
5 | Y[Aib]EGTFTSDYSEYMEKEAVREFIAWLVRGGPSSGAPPPSK (bridge 12-16) [GLP-1/GIP dual agonist of SEQ ID NO: 12] |  | 110%
6 | Y[Aib]EGTFTSDYSIQLDKIAQRAFVQWLIAGGPSSGAPPPSK [GLP-1/GIP dual agonist of SEQ ID NO: 18] | 15.9% | 43.3%
7 | H[Aib]EGTFTSDYSKYLDKKRQ[Aib]EFVQWLLNGGPSSGAPPPSC [GLP-1/GIP dual agonist of SEQ ID NO: 14] | 0.3% | 160%
8 | Y[Aib]EGTFTSDYSRYLDERASKDFVQWLLDHHPSSGQPPPSK (bridge 16-20) [GLP-1/GIP dual agonist of SEQ ID NO: 11] |  | 95%
9 | Y[Aib]EGTFTSDYSKYLDERASKDFVQWLLDHHPSSGQPPPSC (bridge 16-20; also: ring type not given here) [GLP-1/GIP dual agonist of SEQ ID NO: 8] | 29.2% | 35.9%
10 | Y[Aib]EGTFTSDYSI[Aib]LDKQAA[Aib]AFVQWLIAGGPSSGAPPPSC [GLP-1/GIP dual agonist of SEQ ID NO: 20] | 64.2% | 31.5%
11 | Y[Aib]EGTFTSDYSKYLDEIRAKDFVQWLLDHHPSSGQPPPSC (bridge 16-20) [GLP-1/GIP dual agonist of SEQ ID NO: 2] | 28.8% | 3.3%
12 | Y[Aib]EGTFTSDYSKYLDEKAAKEFVQWLLDQHPSSGQPPPSC (bridge 16-20) [GLP-1/GIP dual agonist of SEQ ID NO: 22] | 39.6% | 41.1%
13 | Y[Aib]EGTFTSDYSI[Aib]LDKIAAKAFVQWLIAGGPSSGAPPPSC [GLP-1/GIP dual agonist of SEQ ID NO: 21] | 23.2% | 19.7%
14 | Y[Aib]EGTFTSDYSEYMEKEAVREFIAWLVKGGPSSGAPPPSC (bridge 12-16) [GLP-1/GIP dual agonist of SEQ ID NO: 1] | 27.5% | 53.9%
15 | [Desaminotyrosyl][Aib]EGTFTSDYSI[Aib]LDKIAQRAFVQWLIAGGPSSGAPPPSK [GLP-1/GIP dual agonist of SEQ ID NO: 31] | 38.3% | 93.3%
16 | Y[Aib]EGTFTSDYSKYLDEKAAKDFVQWLLDHHPSSGQPPPSC (bridge 16-20) [GLP-1/GIP dual agonist of SEQ ID NO: 5] | 48.2% | 20.2%

Row | Binder | In vitro activity (%) compared to native-type peptide, vs human GIP (cAMP EC50, human GIP receptor-expressing CHO cells) (human GIP receptor) | In vitro activity (%) compared to native-type peptide, vs human GLP-1 (cAMP EC50, human GLP-1 receptor-expressing CHO cells) (human GLP-1 receptor)
17 | Y[Aib]EGTFTSDYSIAMDAIAQQDFVNWLLAQRGKKSDWKHNITQC [GLP-1/GIP dual agonist of SEQ ID NO: 27] | 55.5% | 0.2%
18 | Y[Aib]EGTFTSDYSI[Aib]LDKQAA[Aib]EFVNWLL[Aib]GHPSSGAPPPSC [GLP-1/GIP dual agonist of SEQ ID NO: 30] | 63.4% | 1%
19 | Y[Aib]EGTFTSDYSIALEKQAQQDFVNWLLAGGPSSGAPPPSC [GLP-1/GIP dual agonist of SEQ ID NO: 28] | 146% | 6.7%
20 | Y[Aib]EGTFTSDYSKYLDEQAAKEFVQWLLDQHPSSGAPPPSC (bridge 16-20) [GLP-1/GIP dual agonist of SEQ ID NO: 23] | 106% | 13.5%
21 | Y[Aib]EGTFTSDYSI[Aib]LDKQAA[Aib]EFVNWLL[Aib]GGPSSGAPPPSC [GLP-1/GIP dual agonist of SEQ ID NO: 29] | 96% | 0.5%
22 | Y[Aib]EGTFTSDYSIYLDERACKDFVQWLLDHHPSSGQPPPSYK (bridge 16-20) [GLP-1/GIP dual agonist of SEQ ID NO: 15] | 64.4% | 97.5%
23 | Y[Aib]EGTFTSDYSKYLDEIAQKDFVQWLLDQHPSSGAPPPSC (bridge 16-20) [GLP-1/GIP dual agonist of SEQ ID NO: 24] | 83.9% | 7.3%
24 | Y[Aib]EGTFTSDYSRYLDERAAKDFVQWLLDHHPSSGQPPPSK (bridge 16-20) [GLP-1/GIP dual agonist of SEQ ID NO: 9] |  | 141%
25 | Y[Aib]EGTFTSDYSI[Aib]LDKQAARAFVQWLIAGGPSSGAPPPSC [GLP-1/GIP dual agonist of SEQ ID NO: 34] | 63.4% | 34.2%
26 | Y[Aib]EGTFTSDYSIQLDKIAQKAFVQWLIAGGPSSGAPPPSC [GLP-1/GIP dual agonist of SEQ ID NO: 17] | 7.7% | 19.8%
27 | [HAY][Aib]EGTFTSDYSI[Aib]LDKIAQRAFVQWLIAGGPSSGAPPPSK [GLP-1/GIP dual agonist of SEQ ID NO: 32] | 20.1% | 88.3%
28 | Y[Aib]EGTFTSDYSIAMDAIAQQDFVNWLLAQKGKKNDWKHNITQC [GLP-1/GIP dual agonist of SEQ ID NO: 26] | 57.9% | 0.3%
29 | Y[Aib]EGTFTSDYSRYLDERAQKDFVQWLLDHHPSSGQPPPSK (bridge 16-20) [GLP-1/GIP dual agonist of SEQ ID NO: 10] |  | 108%
30 | Y[Aib]EGTFTSDYSKYLDERAQKDFVQWLLDHHPSSGQPPPSC (bridge 16-20; also: ring type not given here) [GLP-1/GIP dual agonist of SEQ ID NO: 7] | 62.3% | 18.3%
31 | Y[Aib]EGTFTSDYSI[Aib]LDKIAQRAFVQWLIAGGPSSGAPPPSK [GLP-1/GIP dual agonist of SEQ ID NO: 16] | 72.3% | 60%

From patent US20230382970A1 (HANMI PHARM, published 2023)
